Measured values as given in patent US20220213176A1.

Target: SARS-CoV-2 K417N+E484K+N501Y+D614G mutant pseudovirus spike (spikeΔ19) (SARS-CoV-2) (UniProt P0DTC2)
Test: cell-based or functional assay

With S309 dimer (antibody) the NT50 (B.1.351) (nM), pseudovirus neutralization was 0.36 nM.
